Test results: patent publication US12630600B2 (MEDIMMUNE LIMITED, priority 2022, dated 2026)
Starred links: 1 amine or outer side, 2 acyl side, 3 side chain; linkers in the order of their positions; H or OH if unused. Non-standard residues stand in square brackets, D forms with d. Groups on a side chain read outwards from the residue. No end group written: not given here. *: point of attachment. C20 diacid = O=C(O)CCCCCCCCCCCCCCCCCCC(=O)*; C18 diacid = O=C(O)CCCCCCCCCCCCCCCCC(=O)*; γGlu = O=C(O)[C@H](CCC(=O)[*:2])N[*:1]; αMeF = C[C@](N)(Cc1ccccc1)C(=O)O; AEEA = NCCOCCOCC(=O)O; Aib = CC(C)(N)C(=O)O

B1: Peptide 421 (peptide)
peptide: H[Aib]QGTFTSDVSK[αMeF]LDRK([AEEA-AEEA-γGlu-C18 diacid])RAQDFVRWLL[Aib]TE-OH
modifications: N-terminus assumed
SMILES: CC(C)C[C@H](NC(=O)[C@H](Cc1c[nH]c2ccccc12)NC(=O)[C@H](CCCNC(=N)N)NC(=O)[C@@H](NC(=O)[C@H](Cc1ccccc1)NC(=O)[C@H](CC(=O)O)NC(=O)[C@H](CCC(N)=O)NC(=O)[C@H](C)NC(=O)[C@H](CCCNC(=N)N)NC(=O)[C@H](CCCCNC(=O)COCCOCCNC(=O)COCCOCCNC(=O)CC[C@H](NC(=O)CCCCCCCCCCCCCCCCC(=O)O)C(=O)O)NC(=O)[C@H](CCCNC(=N)N)NC(=O)[C@H](CC(=O)O)NC(=O)[C@H](CC(C)C)NC(=O)[C@](C)(Cc1ccccc1)NC(=O)[C@H](CCCCN)NC(=O)[C@H](CO)NC(=O)[C@@H](NC(=O)[C@H](CC(=O)O)NC(=O)[C@H](CO)NC(=O)[C@@H](NC(=O)[C@H](Cc1ccccc1)NC(=O)[C@@H](NC(=O)CNC(=O)[C@H](CCC(N)=O)NC(=O)C(C)(C)NC(=O)[C@@H](N)Cc1c[nH]cn1)[C@@H](C)O)[C@@H](C)O)C(C)C)C(C)C)C(=O)N[C@@H](CC(C)C)C(=O)NC(C)(C)C(=O)N[C@H](C(=O)N[C@@H](CCC(=O)O)C(=O)O)[C@@H](C)O
B2: Peptide 418 (peptide)
peptide: H[Aib]QGTFTSDVSK[αMeF]LDTK([AEEA-AEEA-γGlu-γGlu-C20 diacid])RAQDFVAWLEA[Aib]G-OH
modifications: N-terminus assumed
SMILES: CC(C)C[C@H](NC(=O)[C@H](Cc1c[nH]c2ccccc12)NC(=O)[C@H](C)NC(=O)[C@@H](NC(=O)[C@H](Cc1ccccc1)NC(=O)[C@H](CC(=O)O)NC(=O)[C@H](CCC(N)=O)NC(=O)[C@H](C)NC(=O)[C@H](CCCNC(=N)N)NC(=O)[C@H](CCCCNC(=O)COCCOCCNC(=O)COCCOCCNC(=O)CC[C@H](NC(=O)CC[C@H](NC(=O)CCCCCCCCCCCCCCCCCCC(=O)O)C(=O)O)C(=O)O)NC(=O)[C@@H](NC(=O)[C@H](CC(=O)O)NC(=O)[C@H](CC(C)C)NC(=O)[C@](C)(Cc1ccccc1)NC(=O)[C@H](CCCCN)NC(=O)[C@H](CO)NC(=O)[C@@H](NC(=O)[C@H](CC(=O)O)NC(=O)[C@H](CO)NC(=O)[C@@H](NC(=O)[C@H](Cc1ccccc1)NC(=O)[C@@H](NC(=O)CNC(=O)[C@H](CCC(N)=O)NC(=O)C(C)(C)NC(=O)[C@@H](N)Cc1c[nH]cn1)[C@@H](C)O)[C@@H](C)O)C(C)C)[C@@H](C)O)C(C)C)C(=O)N[C@@H](CCC(=O)O)C(=O)N[C@@H](C)C(=O)NC(C)(C)C(=O)NCC(=O)O
B3: Peptide 419 (peptide)
peptide: H[Aib]QGTFTSDVSK[αMeF]LDTK([AEEA-AEEA-γGlu-C18 diacid])RAQDFVRWLE[Aib]E-OH
modifications: N-terminus assumed
SMILES: CC(C)C[C@H](NC(=O)[C@H](Cc1c[nH]c2ccccc12)NC(=O)[C@H](CCCNC(=N)N)NC(=O)[C@@H](NC(=O)[C@H](Cc1ccccc1)NC(=O)[C@H](CC(=O)O)NC(=O)[C@H](CCC(N)=O)NC(=O)[C@H](C)NC(=O)[C@H](CCCNC(=N)N)NC(=O)[C@H](CCCCNC(=O)COCCOCCNC(=O)COCCOCCNC(=O)CC[C@H](NC(=O)CCCCCCCCCCCCCCCCC(=O)O)C(=O)O)NC(=O)[C@@H](NC(=O)[C@H](CC(=O)O)NC(=O)[C@H](CC(C)C)NC(=O)[C@](C)(Cc1ccccc1)NC(=O)[C@H](CCCCN)NC(=O)[C@H](CO)NC(=O)[C@@H](NC(=O)[C@H](CC(=O)O)NC(=O)[C@H](CO)NC(=O)[C@@H](NC(=O)[C@H](Cc1ccccc1)NC(=O)[C@@H](NC(=O)CNC(=O)[C@H](CCC(N)=O)NC(=O)C(C)(C)NC(=O)[C@@H](N)Cc1c[nH]cn1)[C@@H](C)O)[C@@H](C)O)C(C)C)[C@@H](C)O)C(C)C)C(=O)N[C@@H](CCC(=O)O)C(=O)NC(C)(C)C(=O)N[C@@H](CCC(=O)O)C(=O)O
B4: Peptide 417 (peptide)
peptide: H[Aib]QGTFTSDVSK[αMeF]LDTK([AEEA-AEEA-γGlu-γGlu-C18 diacid])RAQDFVAWLEA[Aib]G-OH
modifications: N-terminus assumed
SMILES: CC(C)C[C@H](NC(=O)[C@H](Cc1c[nH]c2ccccc12)NC(=O)[C@H](C)NC(=O)[C@@H](NC(=O)[C@H](Cc1ccccc1)NC(=O)[C@H](CC(=O)O)NC(=O)[C@H](CCC(N)=O)NC(=O)[C@H](C)NC(=O)[C@H](CCCNC(=N)N)NC(=O)[C@H](CCCCNC(=O)COCCOCCNC(=O)COCCOCCNC(=O)CC[C@H](NC(=O)CC[C@H](NC(=O)CCCCCCCCCCCCCCCCC(=O)O)C(=O)O)C(=O)O)NC(=O)[C@@H](NC(=O)[C@H](CC(=O)O)NC(=O)[C@H](CC(C)C)NC(=O)[C@](C)(Cc1ccccc1)NC(=O)[C@H](CCCCN)NC(=O)[C@H](CO)NC(=O)[C@@H](NC(=O)[C@H](CC(=O)O)NC(=O)[C@H](CO)NC(=O)[C@@H](NC(=O)[C@H](Cc1ccccc1)NC(=O)[C@@H](NC(=O)CNC(=O)[C@H](CCC(N)=O)NC(=O)C(C)(C)NC(=O)[C@@H](N)Cc1c[nH]cn1)[C@@H](C)O)[C@@H](C)O)C(C)C)[C@@H](C)O)C(C)C)C(=O)N[C@@H](CCC(=O)O)C(=O)N[C@@H](C)C(=O)NC(C)(C)C(=O)NCC(=O)O
B5: Peptide 415 (peptide)
peptide: H[Aib]QGTFTSDVSK[αMeF]LESK([AEEA-AEEA-γGlu-C18 diacid])RAQDFVRWLEA[Aib]G-OH
modifications: N-terminus assumed
SMILES: CC(C)C[C@H](NC(=O)[C@H](Cc1c[nH]c2ccccc12)NC(=O)[C@H](CCCNC(=N)N)NC(=O)[C@@H](NC(=O)[C@H](Cc1ccccc1)NC(=O)[C@H](CC(=O)O)NC(=O)[C@H](CCC(N)=O)NC(=O)[C@H](C)NC(=O)[C@H](CCCNC(=N)N)NC(=O)[C@H](CCCCNC(=O)COCCOCCNC(=O)COCCOCCNC(=O)CC[C@H](NC(=O)CCCCCCCCCCCCCCCCC(=O)O)C(=O)O)NC(=O)[C@H](CO)NC(=O)[C@H](CCC(=O)O)NC(=O)[C@H](CC(C)C)NC(=O)[C@](C)(Cc1ccccc1)NC(=O)[C@H](CCCCN)NC(=O)[C@H](CO)NC(=O)[C@@H](NC(=O)[C@H](CC(=O)O)NC(=O)[C@H](CO)NC(=O)[C@@H](NC(=O)[C@H](Cc1ccccc1)NC(=O)[C@@H](NC(=O)CNC(=O)[C@H](CCC(N)=O)NC(=O)C(C)(C)NC(=O)[C@@H](N)Cc1c[nH]cn1)[C@@H](C)O)[C@@H](C)O)C(C)C)C(C)C)C(=O)N[C@@H](CCC(=O)O)C(=O)N[C@@H](C)C(=O)NC(C)(C)C(=O)NCC(=O)O
B6: Peptide 416 (peptide)
peptide: H[Aib]QGTFTSDVSK[αMeF]LESK([AEEA-AEEA-γGlu-C20 diacid])RAQDFVRWLEA[Aib]G-OH
modifications: N-terminus assumed
SMILES: CC(C)C[C@H](NC(=O)[C@H](Cc1c[nH]c2ccccc12)NC(=O)[C@H](CCCNC(=N)N)NC(=O)[C@@H](NC(=O)[C@H](Cc1ccccc1)NC(=O)[C@H](CC(=O)O)NC(=O)[C@H](CCC(N)=O)NC(=O)[C@H](C)NC(=O)[C@H](CCCNC(=N)N)NC(=O)[C@H](CCCCNC(=O)COCCOCCNC(=O)COCCOCCNC(=O)CC[C@H](NC(=O)CCCCCCCCCCCCCCCCCCC(=O)O)C(=O)O)NC(=O)[C@H](CO)NC(=O)[C@H](CCC(=O)O)NC(=O)[C@H](CC(C)C)NC(=O)[C@](C)(Cc1ccccc1)NC(=O)[C@H](CCCCN)NC(=O)[C@H](CO)NC(=O)[C@@H](NC(=O)[C@H](CC(=O)O)NC(=O)[C@H](CO)NC(=O)[C@@H](NC(=O)[C@H](Cc1ccccc1)NC(=O)[C@@H](NC(=O)CNC(=O)[C@H](CCC(N)=O)NC(=O)C(C)(C)NC(=O)[C@@H](N)Cc1c[nH]cn1)[C@@H](C)O)[C@@H](C)O)C(C)C)C(C)C)C(=O)N[C@@H](CCC(=O)O)C(=O)N[C@@H](C)C(=O)NC(C)(C)C(=O)NCC(=O)O
B7: Peptide 420 (peptide)
peptide: H[Aib]QGTFTSDVSK[αMeF]LDKK([AEEA-AEEA-γGlu-C18 diacid])RAQDFVRWLL[Aib]E-NH2
modifications: N-terminus assumed
SMILES: CC(C)C[C@H](NC(=O)[C@H](Cc1c[nH]c2ccccc12)NC(=O)[C@H](CCCNC(=N)N)NC(=O)[C@@H](NC(=O)[C@H](Cc1ccccc1)NC(=O)[C@H](CC(=O)O)NC(=O)[C@H](CCC(N)=O)NC(=O)[C@H](C)NC(=O)[C@H](CCCNC(=N)N)NC(=O)[C@H](CCCCNC(=O)COCCOCCNC(=O)COCCOCCNC(=O)CC[C@H](NC(=O)CCCCCCCCCCCCCCCCC(=O)O)C(=O)O)NC(=O)[C@H](CCCCN)NC(=O)[C@H](CC(=O)O)NC(=O)[C@H](CC(C)C)NC(=O)[C@](C)(Cc1ccccc1)NC(=O)[C@H](CCCCN)NC(=O)[C@H](CO)NC(=O)[C@@H](NC(=O)[C@H](CC(=O)O)NC(=O)[C@H](CO)NC(=O)[C@@H](NC(=O)[C@H](Cc1ccccc1)NC(=O)[C@@H](NC(=O)CNC(=O)[C@H](CCC(N)=O)NC(=O)C(C)(C)NC(=O)[C@@H](N)Cc1c[nH]cn1)[C@@H](C)O)[C@@H](C)O)C(C)C)C(C)C)C(=O)N[C@@H](CC(C)C)C(=O)NC(C)(C)C(=O)N[C@@H](CCC(=O)O)C(N)=O

How the values were obtained:
[1] = molecular target: human GLP-1 receptor (human, UniProt P43220); experiment: cell-based or functional assay
[2] = molecular target: human glucagon receptor (human, UniProt P47871); experiment: cell-based or functional assay

Binder	cAMP production EC50 [1]	cAMP production EC50 [2]
B1	0.0873 nM	0.18 nM
B2	0.0881 nM	0.222 nM
B3	0.0969 nM	0.264 nM
B4	0.0339 nM	0.0164 nM
B5	0.0147 nM	0.301 nM
B6	0.0677 nM	0.581 nM
B7	0.0231 nM	0.0369 nM
